The supplement of paper PMC9732359
± gives the uncertainty stated by the source.

Experiment: protein stability index of a GFP-peptide fusion (yeast GPS) (PSI 1-4); higher = more stable; sorted into four equal gates, so the index is relative within each strain
How it was run: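 Plasmids isolated from each sorting gate were PCR-amplified and Illumina-sequenced, and barcodes assigned the reads to strains. The gates, four of equal size, were set by GFP/Cherry fluorescence ratio on mid-log cultures in leucine-free medium. These cultures were yeast carrying a pooled library of tiled 17-residue yeast protein peptides fused downstream of GFP on a plasmid that also expresses Cherry. The protein stability index is the sum of every gate's read frequency times its gate number.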

| Sequence | protein stability index (doa10∆) | protein stability index (pdr5∆) | protein stability index (san1∆) | protein stability index (ubr1∆) |
| --- | --- | --- | --- | --- |
| STRASTVPNLPTTMVTN [ISW2] | 1.92 ± 0.055 | 2.38 ± 0.056 | 2.35 ± 0.058 | 2.38 ± 0.047 |
| GLFGNKPNNTANTGGGL [YGL172W/NUP49] | 3.66 ± 0.17 | 3.65 ± 0.13 | 3.49 ± 0.062 | 3.56 ± 0.11 |
| LESYLIVHHPYQSLKQI [SSN8] | 2.33 ± 0.052 | 2.46 ± 0.059 | 2.29 ± 0.053 | 2.38 ± 0.044 |
| EQQKEELTDKLSALNSE [SMC1] |  | 3.19 ± 0.11 | 2.73 ± 0.15 | 3.14 ± 0.12 |
| LQALKANDEEAYIKLLD [SNF2] | 2.91 ± 0.093 | 3.29 ± 0.1 | 3.36 ± 0.11 | 2.77 ± 0.2 |
| LEAARSEKQNDEEAAGA [PRP8] | 2.37 ± 0.097 | 2.04 ± 0.078 | 2.61 ± 0.2 | 2.32 ± 0.078 |
| TAKKTNRSAYDSKNTPN [YDL088C/ASM4] | 2.68 ± 0.089 | 2.78 ± 0.065 | 2.94 ± 0.052 | 2.9 ± 0.084 |
| FKLPKKFPPPTPLLENI [BRR2] | 2.44 ± 0.062 | 2.72 ± 0.067 | 2.31 ± 0.061 | 2.71 ± 0.048 |
| TLDRNTAAETFKLFNKY [RPL8A] | 3.03 ± 0.088 | 3.19 ± 0.068 | 3.08 ± 0.082 | 2.94 ± 0.066 |
| VTGASQFQRLAPSLTVP [PRE2] | 2.01 ± 0.096 | 1.25 ± 0.095 | 1.36 ± 0.2 | 1.67 ± 0.089 |
| VFPSSILDITDEELVSH [RPP0] | 2.89 ± 0.067 | 2.94 ± 0.1 | 3.26 ± 0.068 | 2.99 ± 0.065 |
| DENKASATSKPAFSFGA [YJL041W/NSP1] | 2.96 ± 0.063 | 2.98 ± 0.055 | 3 ± 0.05 | 2.97 ± 0.055 |
| HLLRQTNAFLDSLTRAV [SNF2] | 2.61 ± 0.061 | 2.6 ± 0.066 | 2.69 ± 0.044 | 2.65 ± 0.033 |
| SKKLNLKIHQSHLVVPY [YMR129W/POM152] | 2.32 ± 0.15 | 1.95 ± 0.086 |  | 2.88 ± 0.14 |
| YILRYLHANGASFFFMV [COB] | 1.57 ± 0.041 | 1.27 ± 0.033 | 1.39 ± 0.081 | 1.36 ± 0.038 |
| LRKLKKMNNKPERFMVF [RPC53] | 3.19 ± 0.099 | 3.35 ± 0.14 | 3.03 ± 0.099 | 3.18 ± 0.14 |
| AEKKVVRLTSRQRGRIA [RPL17A] | 2.88 ± 0.18 | 1.28 ± 0.074 | 1.45 ± 0.19 | 1.14 ± 0.093 |
| TEHVRQNAKLLANLIRD [RRP6] | 1.54 ± 0.046 | 1.93 ± 0.08 | 2.39 ± 0.14 | 1.62 ± 0.086 |
| MEDEILSLGMDFIKFDQ [BRN1] | 3.23 ± 0.061 | 3.35 ± 0.052 | 3.27 ± 0.041 | 3.15 ± 0.043 |
| RKRCKGTVGNSHKTTKE [RPL11A] | 2.94 ± 0.28 | 3 ± 0.17 | 2.99 ± 0.16 |  |
| KAALERLKVFEGIPPPY [RPL16A] | 2.57 ± 0.096 | 2.84 ± 0.12 | 3.09 ± 0.092 | 2.69 ± 0.085 |
| KISGGNDKQGFPMKQGV [RPS6A] | 2.53 ± 0.071 | 2.83 ± 0.085 | 3.01 ± 0.059 | 2.85 ± 0.067 |
| KILAGLHDTQIEGKLHM [RPN10] | 3.31 ± 0.18 | 3.46 ± 0.18 |  | 2.98 ± 0.22 |
| DYSEIQRSRRKFSERRK [DSN1] | 2.86 ± 0.095 | 3.35 ± 0.24 | 3.46 ± 0.087 | 2.75 ± 0.16 |
| NVRVGQAVETVGQAGRP [RPN1] | 2.4 ± 0.11 | 3.14 ± 0.092 | 3.19 ± 0.072 | 3.02 ± 0.1 |
| TGQNFLTSNISSLVRSC [REC8] | 3.21 ± 0.12 | 2.78 ± 0.08 | 2.54 ± 0.099 | 2.96 ± 0.091 |
| NTNNINNSSSGMNNASA [YGL172W/NUP49] | 3.33 ± 0.11 | 3.17 ± 0.079 | 3.25 ± 0.056 | 3.22 ± 0.094 |

| Sequence | protein stability index (doa10∆) | protein stability index (pdr5∆) | protein stability index (san1∆) | protein stability index (ubr1∆) |
| --- | --- | --- | --- | --- |
| KSAEGNNIDQSLILKES [YAR002W/NUP60] | 2.82 ± 0.095 | 2.86 ± 0.063 | 2.61 ± 0.096 | 3 ± 0.078 |
| PRLSHLSLTAVPSFLRP [GRR1] | 2.09 ± 0.042 | 1.93 ± 0.062 | 1.79 ± 0.074 | 2.18 ± 0.045 |
| NAQQTFHIDHTKPSDLT [RPO21] | 2.85 ± 0.044 | 2.6 ± 0.042 | 2.69 ± 0.048 | 2.82 ± 0.041 |
| VRLLCRSDGMGNVLLNA [YLR335W/NUP2] | 1.94 ± 0.17 | 2.41 ± 0.13 | 2.02 ± 0.18 | 2.53 ± 0.12 |
| NTFVTRLNNVFVIGEQG [RPS4A] | 3.29 ± 0.096 | 2.89 ± 0.09 | 3.22 ± 0.13 | 3.16 ± 0.094 |
| LDALVDCENFFNYVQEC [YJL039C/NUP192] | 3.37 ± 0.12 | 3.43 ± 0.084 | 3.44 ± 0.079 | 3.41 ± 0.065 |
| RPGRIDRKIEFPPPSVA [RPT6] | 3.21 ± 0.072 | 3.26 ± 0.07 | 3.05 ± 0.054 | 3.25 ± 0.048 |
| AHELQSEDVSRDHEKDT [YIL149C/MLP2] | 2.38 ± 0.085 | 2.73 ± 0.072 | 2.8 ± 0.061 | 2.68 ± 0.082 |
| RHLPMYTEFIDSFIEKI [ITC1] | 2.4 ± 0.097 | 2.69 ± 0.075 | 2.85 ± 0.11 | 3 ± 0.066 |
| QSSLSKVDIPLEVVQYI [NUT2] | 2.69 ± 0.081 | 2.16 ± 0.086 | 2.24 ± 0.083 | 2.29 ± 0.071 |
| QEKESQIQLAESELSLL [SMC4] | 2.81 ± 0.046 | 2.95 ± 0.051 | 1.89 ± 0.076 | 2.71 ± 0.039 |
| ERHGYIRGIVKQIVHDS [RPL2A] | 1.6 ± 0.051 | 1.84 ± 0.072 | 1.92 ± 0.062 | 1.79 ± 0.05 |
| DERTKEFEKKLQETLNK [YIL149C/MLP2] |  |  | 2.88 ± 0.12 |  |
| KLRSELGYKDTSVIQDL [BRR2] | 2.74 ± 0.13 | 2.22 ± 0.083 | 2.69 ± 0.072 | 2.96 ± 0.083 |
| ATEPQMVLFNIYDDWLD [PRP8] | 2.28 ± 0.051 | 2.15 ± 0.047 | 1.6 ± 0.09 | 2.18 ± 0.044 |
| LAKERQKLWLLECQLFP [SSN8] | 2.06 ± 0.057 | 1.85 ± 0.052 | 1.47 ± 0.1 | 2.05 ± 0.047 |
| NILWAIYNSASKASMQK [YCS4] | 1.66 ± 0.13 | 2.11 ± 0.13 | 1.58 ± 0.22 | 2.18 ± 0.077 |
| DEDKNFPRSRSRSRSSI [ESC2] | 3.13 ± 0.15 | 3.25 ± 0.14 | 3.12 ± 0.14 | 3.27 ± 0.07 |
| NKYANNDFANNLPKEGD [CSL4] | 3.14 ± 0.067 | 3 ± 0.056 | 2.9 ± 0.065 | 2.4 ± 0.071 |
| LKREERQGLIHQGSGGS [SMC3] |  | 3.52 ± 0.1 |  |  |
| PQIVVPDAQNELPKFIL [DIS3] | 2.9 ± 0.049 | 3.09 ± 0.06 | 2.92 ± 0.043 | 2.98 ± 0.077 |
| RGNKVNKQIEILTDLVN [ITC1] | 2.83 ± 0.11 | 2.75 ± 0.098 | 2.71 ± 0.11 | 2.97 ± 0.13 |
| NNDADKGRSYAYFMVGA [RIP1] | 3.24 ± 0.11 | 3.32 ± 0.1 | 3.29 ± 0.084 | 3.07 ± 0.075 |
| GVTKGYKYKMRYVYAHF [RPL9A] | 2.73 ± 0.14 |  | 3.12 ± 0.12 | 2.87 ± 0.16 |
| NDLHHSEKKYAEEDQVQ [RPN3] | 2.85 ± 0.1 | 3.3 ± 0.16 | 2.99 ± 0.13 | 2.98 ± 0.21 |
| YKEQIIQGFYWAVKEGP [SNU114] | 2.75 ± 0.088 | 2.38 ± 0.064 | 2.23 ± 0.09 | 2.38 ± 0.08 |
